Measurements: patent US12692310B2, “ASIC1 channel antagonist antibody” (ShanghaiTech University, priority 2019, dated 2026)

Key:
[1] = pH stability, SEC-HPLC analysis; assay type: physicochemical; design: dose or concentration left out as unconfirmed; settings: pH 7.4 to 5.0, 6 h at 37° C.
Experimental: The tolerance of ASC06-IgG1 to acidic conditions was tested. A concentrated ASC06-IgG1 solution ([…]) was incubated at different pH values (from 7.4 to 5.0) for 6 h at 37° C. and subjected to SEC-HPLC analysis.

hASIC2a = target: T1, hASIC2a (Homo sapiens, UniProt Q16515); experiment: Subtype selectivity, FACS binding, transfected CHO-K1 cells; assay type: cell-based
T1 construct: expressed in transfected cells; host or cells: CHO-K1, transient
T1 sequence (Q16515 1-512): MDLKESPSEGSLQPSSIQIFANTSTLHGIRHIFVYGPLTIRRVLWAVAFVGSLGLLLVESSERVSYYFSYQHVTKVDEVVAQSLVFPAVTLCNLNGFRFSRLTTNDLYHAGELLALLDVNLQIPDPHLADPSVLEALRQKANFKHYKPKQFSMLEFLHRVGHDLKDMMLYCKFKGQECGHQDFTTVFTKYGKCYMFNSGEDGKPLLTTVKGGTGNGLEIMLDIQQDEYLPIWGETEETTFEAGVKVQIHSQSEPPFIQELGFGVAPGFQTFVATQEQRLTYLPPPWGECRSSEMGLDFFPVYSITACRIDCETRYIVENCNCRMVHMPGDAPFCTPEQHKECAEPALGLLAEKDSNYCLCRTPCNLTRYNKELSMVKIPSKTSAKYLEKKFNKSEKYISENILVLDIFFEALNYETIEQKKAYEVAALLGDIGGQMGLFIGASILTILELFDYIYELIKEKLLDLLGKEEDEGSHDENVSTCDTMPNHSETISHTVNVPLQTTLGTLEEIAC
Experimental: (§1) To test the species and subtype selectivity of ASC06-IgG1, vectors encoding human ASIC1b-eYFP fusion, rat ASIC1a-eYFP fusion, mouse ASIC1a-eYFP fusion, hASIC2a-eYFP fusion, hASIC2b-eYFP fusion, and hASIC3a-eYFP fusion were constructed. The CHO-K1 cells were transiently transfected with these plasmids. FACS binding assay and immunocytochemistry (ICC) were carried out to determine if ASC06-IgG1 is able to bind to the cell surface-expressed ASIC homologs and isotypes.

hASIC1b = target: T2, hASIC1b (Homo sapiens, UniProt P78348); experiment: as above; assay type: cell-based
T2 construct: expressed in transfected cells; host or cells: CHO-K1, transient
T2 sequence (P78348 1-562 isoform P78348-3): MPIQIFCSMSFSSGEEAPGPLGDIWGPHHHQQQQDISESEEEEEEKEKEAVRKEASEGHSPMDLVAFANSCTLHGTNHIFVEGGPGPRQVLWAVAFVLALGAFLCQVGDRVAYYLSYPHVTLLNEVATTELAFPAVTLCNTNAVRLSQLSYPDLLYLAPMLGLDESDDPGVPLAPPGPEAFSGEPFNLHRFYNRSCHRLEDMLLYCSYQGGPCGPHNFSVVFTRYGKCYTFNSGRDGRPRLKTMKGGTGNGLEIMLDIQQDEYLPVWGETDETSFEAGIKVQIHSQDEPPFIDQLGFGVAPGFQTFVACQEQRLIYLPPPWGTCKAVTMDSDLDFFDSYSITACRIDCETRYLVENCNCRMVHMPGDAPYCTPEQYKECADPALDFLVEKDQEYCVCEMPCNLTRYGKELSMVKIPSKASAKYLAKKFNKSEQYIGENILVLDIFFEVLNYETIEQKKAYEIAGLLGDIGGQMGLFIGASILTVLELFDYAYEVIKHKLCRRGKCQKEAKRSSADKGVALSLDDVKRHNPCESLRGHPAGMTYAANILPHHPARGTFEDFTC
Experimental: as §1

hASIC3a = target: T3, hASIC3a (Homo sapiens, UniProt Q9UHC3); experiment: as above; assay type: cell-based
T3 construct: expressed in transfected cells; host or cells: CHO-K1, transient
T3 sequence (Q9UHC3 1-531): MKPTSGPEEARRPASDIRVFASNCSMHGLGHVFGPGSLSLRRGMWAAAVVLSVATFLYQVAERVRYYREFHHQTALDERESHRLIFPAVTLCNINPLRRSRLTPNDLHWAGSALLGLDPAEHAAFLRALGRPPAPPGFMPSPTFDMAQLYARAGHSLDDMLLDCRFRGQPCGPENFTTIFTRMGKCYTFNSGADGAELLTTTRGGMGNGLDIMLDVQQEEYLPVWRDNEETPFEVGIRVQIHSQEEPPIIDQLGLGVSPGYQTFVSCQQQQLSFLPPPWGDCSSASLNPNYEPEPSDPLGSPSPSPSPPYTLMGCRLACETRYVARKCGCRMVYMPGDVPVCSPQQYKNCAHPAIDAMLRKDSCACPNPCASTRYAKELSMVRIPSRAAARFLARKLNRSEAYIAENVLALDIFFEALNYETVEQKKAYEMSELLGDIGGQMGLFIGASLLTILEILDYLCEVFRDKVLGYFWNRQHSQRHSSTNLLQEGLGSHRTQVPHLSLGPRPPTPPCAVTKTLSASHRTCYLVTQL
Experimental: as §1

hASIC2a/2b = target: T4, hASIC2a/2b (Homo sapiens, UniProt Q16515); experiment: as above; assay type: cell-based
T4 construct: expressed in transfected cells; host or cells: CHO-K1, transient
T4 sequence (Q16515 1-512): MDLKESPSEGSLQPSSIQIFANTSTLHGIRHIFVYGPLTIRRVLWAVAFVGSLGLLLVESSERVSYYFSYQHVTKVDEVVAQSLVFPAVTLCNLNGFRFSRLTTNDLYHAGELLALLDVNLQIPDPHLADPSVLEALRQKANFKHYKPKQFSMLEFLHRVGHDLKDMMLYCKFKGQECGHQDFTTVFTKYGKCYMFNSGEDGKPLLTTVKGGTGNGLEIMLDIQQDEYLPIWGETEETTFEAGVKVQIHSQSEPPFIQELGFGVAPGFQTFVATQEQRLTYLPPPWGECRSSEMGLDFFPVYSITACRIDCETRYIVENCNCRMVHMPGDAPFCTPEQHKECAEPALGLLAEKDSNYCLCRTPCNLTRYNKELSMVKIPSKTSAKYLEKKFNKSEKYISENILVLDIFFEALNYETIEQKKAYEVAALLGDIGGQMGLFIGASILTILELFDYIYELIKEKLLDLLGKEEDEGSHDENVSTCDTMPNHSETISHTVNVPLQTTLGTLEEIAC
T4 sequence (Q16515 1-563 isoform Q16515-2): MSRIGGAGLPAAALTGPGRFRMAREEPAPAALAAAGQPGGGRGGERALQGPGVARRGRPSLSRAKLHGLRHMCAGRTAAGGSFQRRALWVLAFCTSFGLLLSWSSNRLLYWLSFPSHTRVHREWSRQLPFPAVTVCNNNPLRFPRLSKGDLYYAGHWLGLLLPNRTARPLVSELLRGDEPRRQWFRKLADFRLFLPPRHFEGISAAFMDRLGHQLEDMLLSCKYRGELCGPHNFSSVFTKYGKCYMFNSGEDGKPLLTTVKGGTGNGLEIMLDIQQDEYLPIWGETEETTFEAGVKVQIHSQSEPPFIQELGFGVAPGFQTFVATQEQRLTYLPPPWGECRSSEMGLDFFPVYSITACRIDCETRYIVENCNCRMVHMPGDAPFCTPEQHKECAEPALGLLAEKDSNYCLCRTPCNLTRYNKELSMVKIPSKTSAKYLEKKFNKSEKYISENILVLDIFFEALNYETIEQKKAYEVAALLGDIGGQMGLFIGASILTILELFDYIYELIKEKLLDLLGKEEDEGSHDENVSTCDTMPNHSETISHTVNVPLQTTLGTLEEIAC
Experimental: as §1

B1: ASC06-IgG1: ASC06 antibody converted into a full length IgG1 form (antibody, V domains shown)
VH: QVQLQQSGGGLVQPGGSLRLSCAASGFTFSSYAMSWVRQAPGKGLEWVSAISGSGGSTYYADSVKGRFTISRDNSKNTLYLQMNSLRAEDTAVYYCAKDSFYGYSKGDWGQGTLVTVSS
VL: QSALTQPASVSGSPGQSITISCTGTSSDVGAYNYVSWYQQQPGKAPKLMIYGVSNRPSGVSNRFSGSKSGNAASLTISGLQAEDEADYYCSSYTSSSTYVFGTGTKLTVLG
degradation or aggregation by SEC-HPLC [1]: no significant degradation or aggregation | FACS recognition of hASIC2a (hASIC2a): not | FACS recognition of hASIC1b (hASIC1b): not | FACS recognition of hASIC3a (hASIC3a): not | FACS recognition of hASIC2a/2b (hASIC2a/2b): not
